Experimental findings from article PMC7181328 (ACS Central Science, 2020) are described below.

Where a chain is given by its changes, count along the chain named.

B1: PSMA2 subunit of the human 20S proteasome (natural protein, human (HEK293 cells), UniProt P25787 2-234, looked up)
chain: AERGYSFSLTTFSPSGKLVQIEYALAAVAGGAPSVGIKAANGVVLATEKKQKSILYDERSVHKVEPITKHIGLVYSGMGPDYRVLVHRARKLAQQYYLVYQEPIPTAQLVQRVASVMQEYTQSGGVRPFGVSLLICGWNEGRPYLFQSDPSGAYFAWKATAMGKNYVNGKTFLEKRYNEDLELEDAIHTAILTLKESFEGQMTEDNIEVGICNEAGFRRLTPTEVKDYLAAIA
modifications: N-terminal acetylation
B2: PSMA2 subunit of the rat 20S proteasome (natural protein, rat (Rattus norvegicus), UniProt P17220 2-234, looked up)
chain: B1 chain with K226R
modifications: N-terminal acetylation
B3: α-subunit of the archaeal (Thermoplasma acidophilum) 20S proteasome (natural protein)
chain: MQQGQMAYDRAITVFSPDGRLFQVEYAREAVKKGSTALGMKFANGVLLISDKKVRSRLIEQNSIEKIQLIDDYVAAVTSGLVADARVLVDFARISAQQEKVTYGSLVNIENLVKRVADQMQQYTQYGGVRPYGVSLIFAGIDQIGPRLFDCDPAGTINEYKATAIGSGKDAVVSFLEREYKENLPEKEAVTLGIKALKSSLEEGEELKAPEIASITVGNKYRIYDQEEVKKFL
B4: β-subunit of the archaeal (Thermoplasma acidophilum) 20S proteasome (natural protein, UniProt P28061 9-211, looked up)
chain: TTTVGITLKDAVIMATERRVTMENFIMHKNGKKLFQIDTYTGMTIAGLVGDAQVLVRYMKAELELYRLQRRVNMPIEAVATLLSNMLNQVKYMPYMVQLLVGGIDTAPHVFSIDAAGGSVEDIYASTGSGSPFVYGVLESQYSEKMTVDEGVDLVIRAISAAKQRDSASGGMIDVAVITRKDGYVQLPTDQIESRIRKLGLIL
B5: β7 ring of the yeast (Saccharomyces cerevisiae) 20S proteasome (complex)
chain 1: QFNPYGDNGGTILGIAGEDFAVLAGDTRNITDYSINSRYEPKVFDCGDNIVMSANGFAADGDALVKRFKNSVKWYHFDHNDKKLSINSAARNIQHLLYGKRFFPYYVHTIIAGLDEDGKGAVYSFDPVGSYEREQCRAGGAAASLIMPFLDNQVNFKNQYEPGTNGKVKKPLKYLSVEEVIKLVRDSFTSATERHIQVGDGLEILIVTKDGVRKEFYELKRD
chain 2: MDIILGIRVQDSVILASSKAVTRGISVLKDSDDKTRQLSPHTLMSFAGEAGDTVQFAEYIQANIQLYSIREDYELSPQAVSSFVRQELAKSIRSRRPYQVNVLIGGYDKKKNKPELYQIDYLGTKVELPYGAHGYSGFYTFSLLDHHYRPDMTTEEGLDLLKLCVQELEKRMPMDFKGVIVKIVDKDGIRQVDDFQAQ
chain 3: SDPSSINGGIVVAMTGKDCVAIACDLRLGSQSLGVSNKFEKIFHYGHVFLGITGLATDVTTLNEMFRYKTNLYKLKEERAIEPETFTQLVSSSLYERRFGPYFVGPVVAGINSKSGKPFIAGFDLIGCIDEAKDFIVSGTASDQLFGMCESLYEPNLEPEDLFETISQALLNAADRDALSGWGAVVYIIKKDEVVKRYLKMRQD
chain 4: TQQPIVTGTSVISMKYDNGVIIAADNLGSYGSLLRFNGVERLIPVGDNTVVGISGDISDMQHIERLLKDLVTENAYDNPLADAEEALEPSYIFEYLATVMYQRRSKMNPLWNAIIVAGVQSNGDQFLRYVNLLGVTYSSPTLATGFGAHMANPLLRKVVDRESDIPKTTVQVAEEAIVNAMRVLYYRDARSSRNFSLAIIDKNTGLTFKKNLQVENMKWDFAKDIKGYGTQKI
chain 5: TTTLAFRFQGGIIVAVDSRATAGNWVASQTVKKVIEINPFLLGTMAGGAADCQFWETWLGSQCRLHELREKERISVAAASKILSNLVYQYKGAGLSMGTMICGYTRKEGPTIYYVDSDGTRLKGDIFCVGSGQTFAYGVLDSNYKWDLSVEDALYLGKRSILAAAHRDAYSGGSVNLYHVTEDGWIYHGNHDVGELFWKVKEEEGSFNNVIG
chain 6: TSIMAVTFKDGVILGADSRTTTGAYIANRVTDKLTRVHDKIWCCRSGSAADTQAIADIVQYHLELYTSQYGTPSTETAASVFKELCYENKDNLTAGIIVAGYDDKNKGEVYTIPLGGSVHKLPYAIAGSGSTFIYGYCDKNFRENMSKEETVDFIKHSLSQAIKWDGSSGGVIRMVVLTAAGVERLIFYPDEYEQL
chain 7: TTIVGVKFNNGVVIAADTRSTQGPIVADKNCAKLHRISPKIWCAGAGTAADTEAVTQLIGSNIELHSLYTSREPRVVSALQMLKQHLFKYQGHIGAYLIVAGVDPTGSHLFSIHAHGSTDVGYYLSLGSGSLAAMAVLESHWKQDLTKEEAIKLASDAIQAGIWNDLGSGSNVDVCVMEIGKDAEYLRNYLTPNVREEKQKSYKFPRGTTAVLKESIVNICDIQEEQVDITA
modifications: N-terminal acetylation
B6: β7 ring of the rat 20S proteasome (complex, rat (Rattus norvegicus))
chain 1: RFSPYAFNGGTVLAIAGEDFSIVASDTRLSEGFSIHTRDSPKCYKLTDKTVIGCSGFHGDCLTLTKIIEARLKMYKHSNNKAMTTGAIAAMLSTILYSRRFFPYYVYNIIEGLDEEGKGAVYSFDPVGSYQRDSFKAGGSASAMLQPLLDNQVGFKNMQNVEHVPLTLDRAMRLVKDVFISAAERDVYTGDALRICIVTKEGIREETVPLRKD
chain 2: EYLIGIQGPDYVLVASDRVAASNIVQMKDDHDKMFKMSEKILLLCVGEAGDTVQFAEYIQKNVQLYKMRNGYELSPTAAANFTRRNLADCLRSRTPYHVNLLLAGYDEHEGPALYYMDYLAALAKAPFAAHGYGAFLTLSILDRYYTPTISRERAVELLRKCLEELQKRFILNLPTFSVRVIDKDGIHNLENITFTKRSS
chain 3: SVMSYNGGAVMAMKGKNCVAIAADRRFGIQAQMVTTDFQKIFPMGDRLYIGLAGLATDVQTVAQRLKFRLNLYELKEGRQIKPYTLMSMVANLLYEKRFGPYYTEPVIAGLDPKTFKPFICSLDLIGCPMVTDDFVVSGTCSEQMYGMCESLWEPNMDPEHLFETISQAMLNAVDRDAVSGMGVIVHIIEKDKITTRTLKARMD
chain 4: TQNPMVTGTSVLGVKFDCGVVIAADMLGSYGSLARFRNISRIMRVNDSTMLGASGDYADFQYLKQVLGQMVIDEELFGDGHSYSPRAIHSWLTRAMYSRRSKMNPLWNTKVIGGYAGGESFLGYVDMLGVAYEAPSLATGYGAYLAQPLLREVLEKQPVLSQTEARELVERCMRVLYYRDARSYNRFQVATVTEKGVEIEGPLSAQTNWDIAHMISGFE
chain 5: TTTLAFKFQHGVIVAADSRATAGPYIASQTVKKVIEINPYLLGTMAGGAADCSFWERLLARQCRIYELRNKERISVAAASKLLANMVYQYKGMGLSMGTMICGWDKRGPGLYYVDSEGNRISGTAFSVGSGSVYAFGVMDRGYSYDLQVEEAYDLARRAIYQATYRDAYSGGAVNLYHVREDGWIRVSSDNVADLHDKYTSSIP
chain 6: TTIMAVQFDGGVVLGADSRTTTGSYIANRVTDKLTPIHDHIFCCRSGSAADTQAVADAVTYQLGFHSIELNEPPLVHTAASLFKEMCYRYREDLMAGIIIAGWDPQEGGQVYSVPMGGMMVRQSFAIGGSGSSYIYGYVDATYREGMTKDECLQFTANALALAMERDGSSGGVIRLAAIQQSGVERQVLLGDQIPKVTISTLPPP
chain 7: TTIAGVVYKDGIVLGADTRATEGMVVADKNCSKIHFISPNIYCCGAGTAADTDMTTQLISSNLELHSLTTGRLPRVVTANRMLKQMLFRYQGYIGAALVLGGVDVTGPHLYSIYPHGSTDKLPYVTMGSGSLAAMAVFEDKFRPDMEEEEAKKLVSEAIAAGIFNDLGSGSNIDLCVISKSKLDFLRPYSVPNKKGTRFGRYRCEKGTTAVLTEKVTPLELEVLEEIVQTMDTS
modifications: N-terminal acetylation | N-terminal acetylation

The target in series [1] is PSMA6 subunit of the human 20S proteasome (human (HEK293 cells), UniProt P60900 2-246, N-terminal acetylation). Briefly: native MS; SID-IM-MS on a Synapt G2 with SID device: two most intense charge states isolated, surface-induced dissociation at 150 V, subcomplexes separated by ion mobility; charge reduced with TEAA (0.1/0.9 TEAA/ammonium acetate, v/v). As to conditions: both partners purified.
Chain of PSMA6 subunit of the human 20S proteasome (P60900 2-246): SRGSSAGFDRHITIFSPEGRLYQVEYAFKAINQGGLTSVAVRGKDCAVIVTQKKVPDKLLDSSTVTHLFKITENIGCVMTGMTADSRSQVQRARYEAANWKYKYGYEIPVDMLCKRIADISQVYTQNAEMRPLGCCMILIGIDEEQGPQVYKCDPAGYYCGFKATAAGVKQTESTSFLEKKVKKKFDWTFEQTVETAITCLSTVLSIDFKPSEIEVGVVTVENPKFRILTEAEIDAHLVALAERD

Series [2] deals with PSMA6 subunit of the rat 20S proteasome (rat (Rattus norvegicus), UniProt P60901 2-246, N-terminal acetylation). The series is described as above. Conditions: both partners purified.
Chain of PSMA6 subunit of the rat 20S proteasome (P60901 2-246): as the sequence (P60900 2-246) above
Series [3] concerns the molecule itself. Described as above.
The target of series [4] is B3. Described as above. As to conditions: both partners purified.
Series [5] concerns the target α7 ring of the yeast (Saccharomyces cerevisiae) 20S proteasome (yeast (Saccharomyces cerevisiae), UniProt P40302 1-234; P23639 2-250; P21242 1-288; P23638 2-258; P32379 1-260; P21243 …, N-terminal acetylation | N-terminal acetylation | N-terminal acetylation | N-terminal acetylation | N-terminal acetylation | N-terminal acetylation). Briefly: native MS; intact 20S proteasomes, native IM-MS on a modified Synapt G1; 150 mM ammonium acetate, pH 7, ~3 uM. Conditions: both partners purified.

As to B1, in series [1], the binding result is reported as “binds”.
Regarding B2, the binding result in series [2] is given as “binds”.
B3: the binding result in series [3] is “binds”.
Take B4: the binding result in series [4] and in series [3] was “binds” each time.
B5: the binding result in series [3] and in series [5] was “binds” throughout.
Consider B6, for which the binding result in series [3] is reported as “binds”.
